# Data reported in patent US20230118024A1 (Chugai, published 2023).
# Read-outs that look alike come from different tables or passages of the source.
# T1: HLA-DQ2.5 on Ba/F3 cells (not in the form of a complex with a linked peptide) (human, UniProt P01909 24-254; P01920 33-261)
# T1 construct: also called Ba/F3-HLA-DQ2.5; No peptide
# T1 MHC II alpha: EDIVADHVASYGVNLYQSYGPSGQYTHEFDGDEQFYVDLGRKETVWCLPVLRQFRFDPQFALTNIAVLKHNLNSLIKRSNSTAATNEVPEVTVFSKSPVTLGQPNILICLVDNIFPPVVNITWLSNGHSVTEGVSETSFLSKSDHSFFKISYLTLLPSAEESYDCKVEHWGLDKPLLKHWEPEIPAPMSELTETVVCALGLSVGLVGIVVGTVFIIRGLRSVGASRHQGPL
# T1 MHC II beta: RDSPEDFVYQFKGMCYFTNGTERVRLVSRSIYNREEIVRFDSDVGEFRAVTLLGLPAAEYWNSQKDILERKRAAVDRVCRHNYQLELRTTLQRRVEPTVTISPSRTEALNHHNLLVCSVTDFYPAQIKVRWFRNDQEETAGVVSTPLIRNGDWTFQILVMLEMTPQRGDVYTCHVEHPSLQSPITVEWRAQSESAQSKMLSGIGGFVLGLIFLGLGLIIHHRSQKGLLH
# T2: HLA-DQ2.5 on HLA-DQ2.5 positive PBMC-B cells (human, UniProt P01909 24-254; P01920 33-261)
# T2 construct: also called DQ2.5 + PBMC; HLA-DQ2.5+PBMC B cell
# T2 MHC II alpha: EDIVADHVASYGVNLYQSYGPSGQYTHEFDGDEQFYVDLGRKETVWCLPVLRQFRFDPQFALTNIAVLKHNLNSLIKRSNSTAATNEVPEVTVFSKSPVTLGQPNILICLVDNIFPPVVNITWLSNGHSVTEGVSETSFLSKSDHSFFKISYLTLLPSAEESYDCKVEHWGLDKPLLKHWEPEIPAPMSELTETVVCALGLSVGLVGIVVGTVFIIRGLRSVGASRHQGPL
# T2 MHC II beta: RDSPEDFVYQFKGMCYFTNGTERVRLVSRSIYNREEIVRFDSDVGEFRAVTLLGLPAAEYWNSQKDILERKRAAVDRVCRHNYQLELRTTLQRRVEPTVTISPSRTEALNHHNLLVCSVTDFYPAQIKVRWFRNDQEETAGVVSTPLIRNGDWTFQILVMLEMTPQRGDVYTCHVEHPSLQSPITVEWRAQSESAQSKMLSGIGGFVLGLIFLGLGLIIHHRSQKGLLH
# T3: recombinant HLA-DQ2.5/33mer gliadin peptide complex (human; wheat)
# T3 construct: also called soluble HLA-DQ2.5/33mer gliadin peptide complex
# T3 alpha: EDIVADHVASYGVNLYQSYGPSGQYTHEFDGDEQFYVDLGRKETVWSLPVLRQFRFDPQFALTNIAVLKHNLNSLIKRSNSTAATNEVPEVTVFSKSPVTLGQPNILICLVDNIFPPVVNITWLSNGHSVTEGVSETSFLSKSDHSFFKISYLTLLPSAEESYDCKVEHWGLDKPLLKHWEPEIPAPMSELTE
# T3 beta: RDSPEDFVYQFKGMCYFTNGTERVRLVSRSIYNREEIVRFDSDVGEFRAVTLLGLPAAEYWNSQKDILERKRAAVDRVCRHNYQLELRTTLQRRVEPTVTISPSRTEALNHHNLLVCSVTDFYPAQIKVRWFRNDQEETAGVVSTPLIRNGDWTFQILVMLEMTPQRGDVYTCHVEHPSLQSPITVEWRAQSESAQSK
# T3 peptide: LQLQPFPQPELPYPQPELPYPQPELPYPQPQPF
# B1: DQN0324hh (antibody, human IgG1, kappa, V domains shown)
# VH: QSLEESGGDLVKPGASLALTCTASGFSLINNYYMCWVRQAPGKGLEWIACIYAGLGGWTYYASWAKGRFTISKTSSTTVTLQMSSLTVADAATYFCARAATTYYHFNLWGPGTLVTVSS
# VL: AVVLTQTESPVSAAVGDTVTIKCQASQSIGNALAWYQQKPGQPPKLLIYDASTLASGVPSRFKGSGSGTQFTLTISDLECADAATYYCQSYDYGSSADTYTFGGGTKVEIKR
# notes: also called DQN0324Lh
# B2: DQN0334bb (antibody, human IgG1, kappa, V domains shown)
# VH: QQQLEESGGDLVQPEGSLTLTCKASGFDFSFNAMCWVRQAPGRGPEWIACIYNGNGSTYYASWAKGRFTISKTSSTSVTLQMTSLTAADTATYFCARGGYGLGYAGYGDVNYFNLWGPGTLVTVSS
# VL: AVVLTQTASPVSAPVGGTVTIKCQASEDIYFLLAWYRQKPGQPPKLLIYGASTLASGVPSRFKGSGSGTEYTLTISDLECADAATYYCQSYWYGDSGPNTFGGGTKVEIKR
# notes: also called DQN0334Hb; DQN0334Lb
# B3: DQN0225dd (antibody, human IgG1, kappa, V domains shown)
# VH: QSLEESGGGLVKPGGTLTLTCTASGFSFSSAYYMCWVRQAPGKGLEWIACIYVGSGSTYYASWAQGRCTISKASSTTVTLQMTSLTAADTATYFCARDPLIYYYYGELNLWGPGTLVTVSS
# VL: AVVLTQTASPVSAPVGGTVTIKCQASEDISSNLAWYQQKPGQRPKVLIYSASTLASGVSSQFKGSGSGTQFTLTISDLECADAATYYCQSYYDISSVTFGGGTKVEIKR
# notes: also called DQN0225Hd; DQN0225Ld
# B4: DQN0282ff (antibody, human IgG1, kappa, V domains shown)
# VH: QSVEESGGRLVTPGTPLTLSCKASGFDFSIYYMSWVRQAPGKGLEWIGVINSGGGVTWYASWVKGRFTISKTSTTVDLKITSPTTEDTATYFCARLGDSNHYDLWGPGTLVTVSS
# VL: AYDMTQTPSSVSAAVGGTVTIKCQASETISSYLAWYQQKPGQRPQLLIYDASNLASGVPSRFKGSGSGTEFTLTISDLECADAATYYCQTHYYITSTTFGGGTKVEIKR
# notes: also called DQN0282Hf; DQN0282Lf
# B5: DQN0271hh (antibody, human IgG1, kappa, V domains shown)
# VH: QSLEESGGGLVKPGASLTLTCKASGFSFSSGYYMCWVRQAPGKGLEWIACIYAGSPDLTYYATWAKGRLTISTTSSTTVTLQLTSLTAADTATYFCARDPGNWGGYDDVRLWGPGTLVTVSS
# VL: AQVLTQTPSPVSAAVGGTVTISCQSSQSIYSNYLSWFQQKTGQPPKLLIYRASTLASGVPSRFKGSGSGTEFTLTISGVECDDAATYYCQGYYSGAIWTFGGGTKVEIKR
# notes: also called DQN0271Lh
# What was measured:
# [1] = target: T1, HLA-DQ2.5 on Ba/F3 cells (not in the …); assay: FACS
# [2] = target: T4, HLA-DQ2.5/alpha 1 gliadin peptide complex on Ba/F3 cells (human; wheat); assay: FACS
# T4 construct: also called Ba/F3-HLA-DQ2.5/alpha 1 gliadin peptide
# [3] = target: T5, HLA-DQ2.5/CLIP peptide complex on Ba/F3 cells (human); assay: FACS
# T5 construct: also called Ba/F3-HLA-DQ2.5/CLIP peptide
# [4] = target: T6, HLA-DQ2.5/alpha 1b gliadin peptide complex on Ba/F3 cells (human; wheat); assay: FACS
# T6 construct: also called Ba/F3-HLA-DQ2.5/alpha 1b gliadin peptide
# [5] = target: T7, HLA-DQ2.5/secalin 2 peptide complex on Ba/F3 cells (human; rye); assay: FACS
# T7 construct: also called Ba/F3-HLA-DQ2.5/secalin 2 peptide
# [6] = target: T2, HLA-DQ2.5 on HLA-DQ2.5 positive PBMC-B …; assay: FACS
# [7] = target: T8, HLA-DQ2.5/33mer gliadin peptide complex on Ba/F3 cells (human; wheat); assay: FACS
# T8 construct: also called Ba/F3-HLA-DQ2.5/33mer gliadin peptide; HLA-DQ2.5/gliadin peptide complex
# [8] = target: T9, HLA-DQ2.5/omega 2 gliadin peptide complex on Ba/F3 cells (human; wheat); assay: FACS
# T9 construct: also called Ba/F3-HLA-DQ2.5/omega 2 gliadin peptide
# [9] = target: T10, HLA-DQ2.5/alpha 2 gliadin peptide complex on Ba/F3 cells (human; wheat); assay: FACS
# T10 construct: also called Ba/F3-HLA-DQ2.5/alpha 2 gliadin peptide
# [10] = target: T11, HLA-DQ2.5/secalin 1 peptide complex on Ba/F3 cells (human; rye); assay: FACS
# T11 construct: also called Ba/F3-HLA-DQ2.5/secalin 1 peptide
# [11] = target: T12, HLA-DQ2.5/omega 1 gliadin peptide complex on Ba/F3 cells (human; wheat); assay: FACS
# T12 construct: also called Ba/F3-HLA-DQ2.5/omega 1 gliadin peptide
# [12] = target: T8, HLA-DQ2.5/33mer gliadin peptide complex …; assay: cell-based or functional assay
# [13] = target: T3, recombinant HLA-DQ2.5/33mer gliadin …; assay: SPR, Ab captured, 37 C, pH 7.4
# [14] = target: T3, recombinant HLA-DQ2.5/33mer gliadin …; assay: AlphaLISA neutralizing assay: biotinylated HLA-DQ2.5/33mer gliadin peptide complex on acceptor beads, biotinylated D2 TCR on donor beads; blocked ligand: D2 TCR (Example 4.4)
# [15] = target: T3, recombinant HLA-DQ2.5/33mer gliadin …; assay: AlphaLISA neutralizing assay: biotinylated HLA-DQ2.5/33mer gliadin peptide complex on acceptor beads, biotinylated D2 TCR on donor beads; blocked ligand: D2 TCR (Example 12)
# [16] = target: T3, recombinant HLA-DQ2.5/33mer gliadin …; assay: SPR, Ab captured, 37 C, pH 7.4
Binder,"FIG. 30 FACS value (IC17=0, DQN0139bb=100) [1]","FIG. 30 FACS value (IC17=0, DQN0139bb=100) [2]","FIG. 30 FACS value (IC17=0, DQN0139bb=100) [3]","FIG. 30 FACS value (IC17=0, DQN0139bb=100) [4]","FIG. 30 FACS value (IC17=0, DQN0139bb=100) [5]","FIG. 30 FACS value (IC17=0, DQN0139bb=100) [6]","FIG. 30 FACS value (IC17=0, DQN0139bb=100) [7]","FIG. 30 FACS value (IC17=0, DQN0139bb=100) [8]","FIG. 30 FACS value (IC17=0, DQN0139bb=100) [9]","FIG. 30 FACS value (IC17=0, DQN0139bb=100) [10]","FIG. 30 FACS value (IC17=0, DQN0139bb=100) [11]",IC50 (read off the curve) [12] [µg/mL],Kd [13] [nM],IC50 (read off the curve) [14] [µg/mL],IC50 (read off the curve) [15] [µg/mL],Kd [16] [nM]
B1,0,26.9,0.3,8.2,14.5,0.3,59.2,79.4,34.9,16.3,7.3,~0.2,6.32,–,–,–
B2,0.4,46.4,1.2,16.5,3.3,0.8,65.9,36.6,45.3,5,2.8,–,5.72,~1,~0.7,6.29
B3,-0.1,93.5,1.2,81.3,68.7,-0.1,108,62,85.1,77.2,75.6,~0.3,7.88,–,–,–
B4,3,32.6,28.7,20.9,48,4.3,73.5,42.6,34.5,49.6,7,–,11.4,~0.3,–,13.7
B5,0,91.2,3.8,80.5,70.2,0,106,68.9,83,65.3,79.3,~0.3,6.07,–,–,–
